This series concerns the molecule itself. Description: native gel or EMSA; 1 µg protein on a 4–16% NativePAGE gel with G-250 additive, room temperature, 150 V for 2 h, stained with Coomassie and silver.

As a reminder, the stoichiometry N is a count of units in the complex or per binding partner.

B1: CHD4-C-Flag, C-terminal Flag-tagged recombinant human CHD4 wild-type (enzyme, UniProt Q14839 1-1912, looked up)
chain: MASGLGSPSPCSAGSEEEDMDALLNNSLPPPHPENEEDPEEDLSETETPKLKKKKKPKKPRDPKIPKSKRQKKERMLLCRQLGDSSGEGPEFVEEEEEVALRSDSEGSDYTPGKKKKKKLGPKKEKKSKSKRKEEEEEEDDDDDSKEPKSSAQLLEDWGMEDIDHVFSEEDYRTLTNYKAFSQFVRPLIAAKNPKIAVSKMMMVLGAKWREFSTNNPFKGSSGASVAAAAAAAVAVVESMVTATEVAPPPPPVEVPIRKAKTKEGKGPNARRKPKGSPRVPDAKKPKPKKVAPLKIKLGGFGSKRKRSSSEDDDLDVESDFDDASINSYSVSDGSTSRSSRSRKKLRTTKKKKKGEEEVTAVDGYETDHQDYCEVCQQGGEIILCDTCPRAYHMVCLDPDMEKAPEGKWSCPHCEKEGIQWEAKEDNSEGEEILEEVGGDLEEEDDHHMEFCRVCKDGGELLCCDTCPSSYHIHCLNPPLPEIPNGEWLCPRCTCPALKGKVQKILIWKWGQPPSPTPVPRPPDADPNTPSPKPLEGRPERQFFVKWQGMSYWHCSWVSELQLELHCQVMFRNYQRKNDMDEPPSGDFGGDEEKSRKRKNKDPKFAEMEERFYRYGIKPEWMMIHRILNHSVDKKGHVHYLIKWRDLPYDQASWESEDVEIQDYDLFKQSYWNHRELMRGEEGRPGKKLKKVKLRKLERPPETPTVDPTVKYERQPEYLDATGGTLHPYQMEGLNWLRFSWAQGTDTILADEMGLGKTVQTAVFLYSLYKEGHSKGPFLVSAPLSTIINWEREFEMWAPDMYVVTYVGDKDSRAIIRENEFSFEDNAIRGGKKASRMKKEASVKFHVLLTSYELITIDMAILGSIDWACLIVDEAHRLKNNQSKFFRVLNGYSLQHKLLLTGTPLQNNLEELFHLLNFLTPERFHNLEGFLEEFADIAKEDQIKKLHDMLGPHMLRRLKADVFKNMPSKTELIVRVELSPMQKKYYKYILTRNFEALNARGGGNQVSLLNVVMDLKKCCNHPYLFPVAAMEAPKMPNGMYDGSALIRASGKLLLLQKMLKNLKEGGHRVLIFSQMTKMLDLLEDFLEHEGYKYERIDGGITGNMRQEAIDRFNAPGAQQFCFLLSTRAGGLGINLATADTVIIYDSDWNPHNDIQAFSRAHRIGQNKKVMIYRFVTRASVEERITQVAKKKMMLTHLVVRPGLGSKTGSMSKQELDDILKFGTEELFKDEATDGGGDNKEGEDSSVIHYDDKAIERLLDRNQDETEDTELQGMNEYLSSFKVAQYVVREEEMGEEEEVEREIIKQEESVDPDYWEKLLRHHYEQQQEDLARNLGKGKRIRKQVNYNDGSQEDRDWQDDQSDNQSDYSVASEEGDEDFDERSEAPRRPSRKGLRNDKDKPLPPLLARVGGNIEVLGFNARQRKAFLNAIMRYGMPPQDAFTTQWLVRDLRGKSEKEFKAYVSLFMRHLCEPGADGAETFADGVPREGLSRQHVLTRIGVMSLIRKKVQEFEHVNGRWSMPELAEVEENKKMSQPGSPSPKTPTPSTPGDTQPNTPAPVPPAEDGIKIEENSLKEEESIEGEKEVKSTAPETAIECTQAPAPASEDEKVVVEPPEGEEKVEKAEVKERTEEPMETEPKGAADVEKVEEKSAIDLTPIVVEDKEEKKEEEEKKEVMLQNGETPKDLNDEKQKKNIKQRFMFNIADGGFTELHSLWQNEERAATVTKKTYEIWHRRHDYWLLAGIINHGYARWQDIQNDPRYAILNEPFKGEMNRGNFLEIKNKFLARRFKLLEQALVIEEQLRRAAYLNMSEDPSHPSMALNTRFAEVECLAESHQHLSKESMAGNKPANAVLHKVLKQLEELLSDMKADVTRLPATIARIPPVAVRLQMSERNILSRLANRAPEPTPQQVAQQQ
notes: human CHD4, chromatin remodeling ATPase of NuRD, UniProt Q14839, 1912 aa; Construct (pDFB6 C-Flag) is described in Hoffmeister et al., 2017; also called hCHD4 wild-type; C-Flag hCHD4; not shown: Flag, C-terminal, kept
Take B1: the “stoichiometry N” value was not below 3.

B2: CHD4-C-Flag Δ aa 217–360 (enzyme, human, UniProt Q14839 1-1912, looked up)
chain: MASGLGSPSPCSAGSEEEDMDALLNNSLPPPHPENEEDPEEDLSETETPKLKKKKKPKKPRDPKIPKSKRQKKERMLLCRQLGDSSGEGPEFVEEEEEVALRSDSEGSDYTPGKKKKKKLGPKKEKKSKSKRKEEEEEEDDDDDSKEPKSSAQLLEDWGMEDIDHVFSEEDYRTLTNYKAFSQFVRPLIAAKNPKIAVSKMMMVLGAKWREFSTNNAVDGYETDHQDYCEVCQQGGEIILCDTCPRAYHMVCLDPDMEKAPEGKWSCPHCEKEGIQWEAKEDNSEGEEILEEVGGDLEEEDDHHMEFCRVCKDGGELLCCDTCPSSYHIHCLNPPLPEIPNGEWLCPRCTCPALKGKVQKILIWKWGQPPSPTPVPRPPDADPNTPSPKPLEGRPERQFFVKWQGMSYWHCSWVSELQLELHCQVMFRNYQRKNDMDEPPSGDFGGDEEKSRKRKNKDPKFAEMEERFYRYGIKPEWMMIHRILNHSVDKKGHVHYLIKWRDLPYDQASWESEDVEIQDYDLFKQSYWNHRELMRGEEGRPGKKLKKVKLRKLERPPETPTVDPTVKYERQPEYLDATGGTLHPYQMEGLNWLRFSWAQGTDTILADEMGLGKTVQTAVFLYSLYKEGHSKGPFLVSAPLSTIINWEREFEMWAPDMYVVTYVGDKDSRAIIRENEFSFEDNAIRGGKKASRMKKEASVKFHVLLTSYELITIDMAILGSIDWACLIVDEAHRLKNNQSKFFRVLNGYSLQHKLLLTGTPLQNNLEELFHLLNFLTPERFHNLEGFLEEFADIAKEDQIKKLHDMLGPHMLRRLKADVFKNMPSKTELIVRVELSPMQKKYYKYILTRNFEALNARGGGNQVSLLNVVMDLKKCCNHPYLFPVAAMEAPKMPNGMYDGSALIRASGKLLLLQKMLKNLKEGGHRVLIFSQMTKMLDLLEDFLEHEGYKYERIDGGITGNMRQEAIDRFNAPGAQQFCFLLSTRAGGLGINLATADTVIIYDSDWNPHNDIQAFSRAHRIGQNKKVMIYRFVTRASVEERITQVAKKKMMLTHLVVRPGLGSKTGSMSKQELDDILKFGTEELFKDEATDGGGDNKEGEDSSVIHYDDKAIERLLDRNQDETEDTELQGMNEYLSSFKVAQYVVREEEMGEEEEVEREIIKQEESVDPDYWEKLLRHHYEQQQEDLARNLGKGKRIRKQVNYNDGSQEDRDWQDDQSDNQSDYSVASEEGDEDFDERSEAPRRPSRKGLRNDKDKPLPPLLARVGGNIEVLGFNARQRKAFLNAIMRYGMPPQDAFTTQWLVRDLRGKSEKEFKAYVSLFMRHLCEPGADGAETFADGVPREGLSRQHVLTRIGVMSLIRKKVQEFEHVNGRWSMPELAEVEENKKMSQPGSPSPKTPTPSTPGDTQPNTPAPVPPAEDGIKIEENSLKEEESIEGEKEVKSTAPETAIECTQAPAPASEDEKVVVEPPEGEEKVEKAEVKERTEEPMETEPKGAADVEKVEEKSAIDLTPIVVEDKEEKKEEEEKKEVMLQNGETPKDLNDEKQKKNIKQRFMFNIADGGFTELHSLWQNEERAATVTKKTYEIWHRRHDYWLLAGIINHGYARWQDIQNDPRYAILNEPFKGEMNRGNFLEIKNKFLARRFKLLEQALVIEEQLRRAAYLNMSEDPSHPSMALNTRFAEVECLAESHQHLSKESMAGNKPANAVLHKVLKQLEELLSDMKADVTRLPATIARIPPVAVRLQMSERNILSRLANRAPEPTPQQVAQQQ
notes: not shown: Flag, C-terminal, kept
For B2, the “stoichiometry N” value was not below 3.

For the origin of these results see article PMC10112965, “Characterization of the nuclear import of the human CHD4–NuRD complex” (Journal of Cell Science, 2023).
